Consider two molecules from patent publication CN111153992A (BEIJING CHEST HOSPITAL CAPITAL MEDICAL UNIV; BEIJING …, dated 2020).

Positions count from the first letter of the chain named.

What all share (experiment): indirect ELISA, recombinant protein coated on plate
For one assay, the target named is T1, 结核分枝杆菌特异性重组蛋白38KD (Mycobacterium tuberculosis, UniProt P9WGU1 24-374).
T1 sequence (looked up): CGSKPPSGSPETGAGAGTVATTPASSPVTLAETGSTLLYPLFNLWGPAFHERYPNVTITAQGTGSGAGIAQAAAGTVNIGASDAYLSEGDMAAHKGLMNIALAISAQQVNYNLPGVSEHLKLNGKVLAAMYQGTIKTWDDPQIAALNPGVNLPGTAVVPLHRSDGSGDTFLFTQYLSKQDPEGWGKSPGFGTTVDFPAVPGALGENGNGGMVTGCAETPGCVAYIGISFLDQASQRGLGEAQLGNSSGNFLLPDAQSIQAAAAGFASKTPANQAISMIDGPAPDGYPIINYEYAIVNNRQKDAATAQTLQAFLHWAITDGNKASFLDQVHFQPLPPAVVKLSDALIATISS

Another assay addresses T2, 结核分枝杆菌特异性重组蛋白MPT64 (Mycobacterium tuberculosis, UniProt P9WIN9 24-228).
T2 sequence (looked up): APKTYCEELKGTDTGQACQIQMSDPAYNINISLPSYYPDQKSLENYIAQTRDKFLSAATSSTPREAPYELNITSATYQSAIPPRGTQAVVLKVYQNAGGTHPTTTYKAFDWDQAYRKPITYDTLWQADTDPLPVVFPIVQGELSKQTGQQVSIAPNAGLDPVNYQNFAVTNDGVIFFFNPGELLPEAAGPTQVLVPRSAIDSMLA

A further assay addresses T3, 结核分枝杆菌特异性重组蛋白CFP10 (Mycobacterium tuberculosis, UniProt P9WNK5 1-100).
T3 sequence (looked up): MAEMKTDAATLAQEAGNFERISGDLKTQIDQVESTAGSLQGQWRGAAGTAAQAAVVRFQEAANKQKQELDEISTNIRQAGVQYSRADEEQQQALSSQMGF

A further assay concerns the target 结核分枝杆菌特异性重组蛋白Mtb81 (Mycobacterium tuberculosis, UniProt P9WK17 1-741).
The next assay addresses T4, 结核分枝杆菌特异性重组蛋白MPT32 (Mycobacterium tuberculosis, UniProt P9WIR7 40-325).
T4 sequence (looked up): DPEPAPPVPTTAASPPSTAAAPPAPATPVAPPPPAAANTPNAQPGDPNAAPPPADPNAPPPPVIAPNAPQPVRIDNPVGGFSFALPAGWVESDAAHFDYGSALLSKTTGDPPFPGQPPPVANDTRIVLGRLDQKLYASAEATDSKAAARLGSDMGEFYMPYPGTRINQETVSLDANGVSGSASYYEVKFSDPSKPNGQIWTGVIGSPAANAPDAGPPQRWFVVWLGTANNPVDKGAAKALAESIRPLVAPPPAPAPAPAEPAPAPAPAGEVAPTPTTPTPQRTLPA

The target of another assay is T5, 结核分枝杆菌特异性重组蛋白EspC (Mycobacterium tuberculosis, UniProt P9WJD7 1-103).
T5 sequence (looked up): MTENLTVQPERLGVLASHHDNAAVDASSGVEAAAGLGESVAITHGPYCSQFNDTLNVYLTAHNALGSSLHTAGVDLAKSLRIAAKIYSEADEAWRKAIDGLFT

Chain of 结核分枝杆菌特异性重组蛋白Mtb81 (P9WK17 whole entry): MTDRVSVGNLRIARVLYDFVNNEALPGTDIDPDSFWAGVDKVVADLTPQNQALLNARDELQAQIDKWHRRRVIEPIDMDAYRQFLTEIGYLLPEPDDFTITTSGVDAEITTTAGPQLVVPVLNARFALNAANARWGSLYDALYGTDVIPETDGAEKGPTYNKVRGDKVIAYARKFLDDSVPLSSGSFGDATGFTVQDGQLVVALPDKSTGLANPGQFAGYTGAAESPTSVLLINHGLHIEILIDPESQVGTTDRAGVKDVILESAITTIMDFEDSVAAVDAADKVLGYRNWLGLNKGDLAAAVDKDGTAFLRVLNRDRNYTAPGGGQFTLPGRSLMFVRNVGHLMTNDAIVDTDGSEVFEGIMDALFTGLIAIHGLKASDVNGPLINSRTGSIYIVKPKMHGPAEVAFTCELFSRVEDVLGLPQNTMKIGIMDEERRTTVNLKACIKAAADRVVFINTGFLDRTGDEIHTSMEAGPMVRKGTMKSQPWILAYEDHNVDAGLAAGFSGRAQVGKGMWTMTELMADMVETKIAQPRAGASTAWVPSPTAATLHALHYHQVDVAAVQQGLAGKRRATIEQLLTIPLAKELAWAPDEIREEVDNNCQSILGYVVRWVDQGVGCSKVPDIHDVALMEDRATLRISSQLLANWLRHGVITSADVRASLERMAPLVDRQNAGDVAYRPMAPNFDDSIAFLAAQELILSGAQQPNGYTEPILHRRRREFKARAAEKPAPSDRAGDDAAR

B1: BJRbL01 (antibody, V domains shown)
VH: QSVEESGGRLVTPGTSLTLTCTVSGFSLSNYDMGWVRQAPGKGLEWIGNIWSNGYTDYASWVNGRFTISKTSSTTMDLKMTSLTTEDMATYFCARGSSGYVGDIWGPGTLVTVSS
VL: DPVLTQTPASVEVAVGGTVTMNCQASHSVYGNNELSWYQQKPGQPPKLLVYKASTLASGVPSRFKGSGSGTQFTLTISDLECDDAAIYYCQGGYWGNRAFGGGTEVVVKG
notes: also called 兔抗LAM单克隆抗体 BJRbL01; 抗LAM抗体
As to B1, the binding result in the assay with 结核分枝杆菌特异性重组蛋白38KD, in the assay with 结核分枝杆菌特异性重组蛋白MPT64, in the assay with 结核分枝杆菌特异性重组蛋白CFP10, with 结核分枝杆菌特异性重组蛋白Mtb81, in the assay with 结核分枝杆菌特异性重组蛋白MPT32 and with 结核分枝杆菌特异性重组蛋白EspC was “no binding (tested: protein coated at 5μg/ml)” each time.

B2: BJRbL03 (antibody, V domains shown)
VH: B1 VH with V3L, S29R, N30S, N49S, G54D, Y55F, I68V, T85S, M88T, A94V
VL: DPMLTQTASSVSAAVGGTVTINCQASQSVYGNNELSWYQQKPGQPPKLLIYKASTLASGVPSRFKASGSGTQFTLTISDLECDDAAIYYCQGGYWGNRAFGGGTKLEIKG
notes: also called 兔抗LAM单克隆抗体 BJRbL03; 抗LAM抗体
Take B2: the binding result in the assay with 结核分枝杆菌特异性重组蛋白38KD, with 结核分枝杆菌特异性重组蛋白MPT64, with 结核分枝杆菌特异性重组蛋白CFP10, with 结核分枝杆菌特异性重组蛋白Mtb81, with 结核分枝杆菌特异性重组蛋白MPT32 and with 结核分枝杆菌特异性重组蛋白EspC was “no binding (tested: protein coated at 5μg/ml)” in each case.
